Experimental data as given in the Human Domainome abundance scans (Beltran et al. 2025).
± gives the uncertainty stated by the source.

B1: Far upstream element-binding protein 1, residues 184 to 257; numbered along this chain, Q96AE4 (parent)
chain: GNAVQEIMIPASKAGLVIGKGGETIKQLQERAGVKMVMIQDGPQNTGADKPLRITGDPYKVQQAKEMVLELIRD

Variants of: B1
Assay: abundance fitness (aPCA) (normalised: wild type 0, dead -1); higher = more abundant; growth selection in yeast, the domain comes from the species named
Conditions: Homo sapiens

Variant | abundance fitness
GNAVQEIMIPASKAGLVIGKGGETIKQLQERAGVKMVMIQDGPQNTGADKPLRITGDPYKVQQAKEMVLELTRD | -0.072 ± 0.034
GNAVQEIMIPASKAGLVIGKGGETIKQLQERAGVKMVMIQDGPQNTGADKPLRITGDPYKVQQAKEMVLSLIRD | -0.106 ± 0.031
GNAVQEIMIPASKAGLVIGKGGETIKQLQERAGVKMVMIQDGPQNTGADKPLRITGDPYKVQQAKEMVLGLIRD | -0.044 ± 0.029
GNAVQEIMIPASKAGLVIGKGGETIKQLQERAGVKMVMIWDGPQNTGADKPLRITGDPYKVQQAKEMVLELIRD | -0.086 ± 0.039
GYAVQEIMIPASKAGLVIGKGGETIKQLQERAGVKMVMIQDGPQNTGADKPLRITGDPYKVQQAKEMVLELIRD | -0.124 ± 0.053
GVAVQEIMIPASKAGLVIGKGGETIKQLQERAGVKMVMIQDGPQNTGADKPLRITGDPYKVQQAKEMVLELIRD | 0.121 ± 0.033
GNAVQEIMIPASKAGLVIGKGGETIKQRQERAGVKMVMIQDGPQNTGADKPLRITGDPYKVQQAKEMVLELIRD | -0.78 ± 0.036
GNAVQEIMIPASKAGLVIGKGGETIKQLQERAGVKMVMIQDGLQNTGADKPLRITGDPYKVQQAKEMVLELIRD | -0.053 ± 0.036
GNAVQEIMIPASKAGLVIGKGGETIKQLQERAGVKMVMIQDGAQNTGADKPLRITGDPYKVQQAKEMVLELIRD | 0.023 ± 0.039
GNAVQEIMIPASKAGLVIGKGGETIKQLQERAGVKMVMIQDGTQNTGADKPLRITGDPYKVQQAKEMVLELIRD | -0.119 ± 0.044
GNYVQEIMIPASKAGLVIGKGGETIKQLQERAGVKMVMIQDGPQNTGADKPLRITGDPYKVQQAKEMVLELIRD | 0.158 ± 0.057
GNAVQEIMIPASKARLVIGKGGETIKQLQERAGVKMVMIQDGPQNTGADKPLRITGDPYKVQQAKEMVLELIRD | -0.041 ± 0.027
GNAWQEIMIPASKAGLVIGKGGETIKQLQERAGVKMVMIQDGPQNTGADKPLRITGDPYKVQQAKEMVLELIRD | -0.105 ± 0.034
GNAVQEIMIPVSKAGLVIGKGGETIKQLQERAGVKMVMIQDGPQNTGADKPLRITGDPYKVQQAKEMVLELIRD | -0.071 ± 0.03
GNAVQEIMTPASKAGLVIGKGGETIKQLQERAGVKMVMIQDGPQNTGADKPLRITGDPYKVQQAKEMVLELIRD | -0.749 ± 0.045
GNAVQEIMIPAYKAGLVIGKGGETIKQLQERAGVKMVMIQDGPQNTGADKPLRITGDPYKVQQAKEMVLELIRD | -0.13 ± 0.049
GNAVQEIMIPASKAGLVIGKGGETIKQLQERWGVKMVMIQDGPQNTGADKPLRITGDPYKVQQAKEMVLELIRD | -0.057 ± 0.037
GNAVQEIMIPASKAGLVIGKGGETIKQLQEREGVKMVMIQDGPQNTGADKPLRITGDPYKVQQAKEMVLELIRD | -0.201 ± 0.038
GNAVQEIMIPASKAGLVIGKGGETYKQLQERAGVKMVMIQDGPQNTGADKPLRITGDPYKVQQAKEMVLELIRD | -0.332 ± 0.062

Variant | abundance fitness
GNAVQEIMIPASKAGLVIGKGGETIKQLQERAGVKMVMIQDGPQNTGKDKPLRITGDPYKVQQAKEMVLELIRD | 0.003 ± 0.038
GNAVQEIMIPASKAGLVISKGGETIKQLQERAGVKMVMIQDGPQNTGADKPLRITGDPYKVQQAKEMVLELIRD | -0.366 ± 0.034
GNAVQEIMIPASKAGLVIGKGPETIKQLQERAGVKMVMIQDGPQNTGADKPLRITGDPYKVQQAKEMVLELIRD | -0.328 ± 0.041
GNAVQEIMIPASKAGLVIGKGGETIKQLQERAGVKMVMIQCGPQNTGADKPLRITGDPYKVQQAKEMVLELIRD | -0.034 ± 0.047
GNAVQEIIIPASKAGLVIGKGGETIKQLQERAGVKMVMIQDGPQNTGADKPLRITGDPYKVQQAKEMVLELIRD | -0.011 ± 0.047
GNAVQEIHIPASKAGLVIGKGGETIKQLQERAGVKMVMIQDGPQNTGADKPLRITGDPYKVQQAKEMVLELIRD | -0.102 ± 0.052
GNAVQEIDIPASKAGLVIGKGGETIKQLQERAGVKMVMIQDGPQNTGADKPLRITGDPYKVQQAKEMVLELIRD | -0.23 ± 0.046
GNAVQEIMIPASKAGLVIGKGGETIKQLQERAGVKMVMIQDGPQNTGADKPLRITGGPYKVQQAKEMVLELIRD | -0.218 ± 0.027
GNAVQEIMIPASKAGLVIGKGGETIKQLQERAGVKMVMIQDGPQNTGADKPLRITGFPYKVQQAKEMVLELIRD | -0.285 ± 0.059
GNAVQEIMIPASKAGLSIGKGGETIKQLQERAGVKMVMIQDGPQNTGADKPLRITGDPYKVQQAKEMVLELIRD | -0.505 ± 0.035
GNAVQEIMIPASKAGLEIGKGGETIKQLQERAGVKMVMIQDGPQNTGADKPLRITGDPYKVQQAKEMVLELIRD | -0.503 ± 0.04
GNAVQEIMIPASKAGLKIGKGGETIKQLQERAGVKMVMIQDGPQNTGADKPLRITGDPYKVQQAKEMVLELIRD | -0.679 ± 0.052
GNAVQEIMIPASKAGLVIGKGGETIKQLQERAGVKMVMIQDGPQNTPADKPLRITGDPYKVQQAKEMVLELIRD | -0.108 ± 0.037
GNAVQEIMIPASKAGLVIGKGGETIKQLQERAGVKMVMIQDQPQNTGADKPLRITGDPYKVQQAKEMVLELIRD | -0.029 ± 0.042
GNAVQEIMIPASKAGLVIGKGGETIKQLQERAGVKMVMIQDLPQNTGADKPLRITGDPYKVQQAKEMVLELIRD | -0.158 ± 0.032
GNAVQEIMIPASKAGLVIGKGGETIKQLQERAGVKMVMIQDGPQNTGADKPLRITGDPYKVQQAKEMVLELIDD | 0.092 ± 0.047
GNAVQEIMIPASKAGLVIGKGGETIKQLQERAGVKMVMIQDGPQNTGADKPLRITGDPYKVQQAKEMVLELIKD | 0.015 ± 0.042
GNAVQEIMIHASKAGLVIGKGGETIKQLQERAGVKMVMIQDGPQNTGADKPLRITGDPYKVQQAKEMVLELIRD | -0.398 ± 0.052
